Results published in paper PMC2714181.

Experiments:
Cys32 = Cys32 (UniProt position 33, FWAEWCGPCKM); conditions: reduced active-site thiol(s) implied, not stated; cited from earlier work
Cys29 [1] = molecular target: Cys29 (UniProt position 29, FWATWCGTSKM); conditions: reduced active-site thiol(s) implied, not stated; cited from earlier work
Cys89 = Cys89 (UniProt position 89, DADNNCPILPP); assay: UV-vis; conditions: poly buffer: 1 mM EDTA, 10 mM Na-borate, 10 mM Na-phosphate, 10 mM Na-citrate, 10 mM CAPS (starting pH 11.4), titrated by stepwise addition of 100 mM HCl; reduced (DTT-treated, DTT removed), free protein
Cys29 [2] = molecular target: Cys29 (UniProt position 29, FWATWCGPCKM); conditions: reduced active-site thiol(s) implied, not stated; cited from earlier work
Cys10 = Cys10 (UniProt position 10, TIYFICTGNSA); assay: UV-vis; conditions: poly buffer: 1 mM EDTA, 10 mM Na-borate, 10 mM Na-phosphate, 10 mM Na-citrate (starting pH 8), titrated by stepwise addition of 100 mM HCl; oxidized with arsenate (Cys82-Cys89 disulfide), Cys10 free thiol

In the case of “Thioredoxin 1 (Ec_Trx1) (Escherichia coli)”, the pKa (Cys32) is given as 7.1.
For “Thioredoxin (Sa_Trx, Trx1) P31T/C32S (Staphylococcus aureus; P31T;C32S)”, the pKa (Cys29 [1]) is given as 6.4.
“Arsenate reductase ArsC (plasmid pI258), C10S/C15A/C82A triple mutant (Sa_ArsC^Trip) (Staphylococcus aureus; C10S;C15A;C82A)” gave a pKa (Cys89) of 9.5.
In the case of “Thioredoxin (Sa_Trx), wild type (Staphylococcus aureus)”, the pKa (Cys29 [2]) is given as 7.1.
Substance “Arsenate reductase ArsC (plasmid pI258), C15A, oxidized form (Staphylococcus aureus; C15A)” has a pKa (Cys10) of 6.8.
